Laboratory results reported in paper PMC4538837, “Structural basis for substrate recognition and processive cleavage mechanisms of the trimeric exonuclease PhoExo I”.
One block for each molecule: values may come before it.

Assays:
[1] = biological target: C-terminal 4×His-tagged PhoExo I (PhoExo I-CHis) (Pyrococcus horikoshii OT3); experiment: SEC; gel filtration on Superdex 200 HR 10/30, 10 mM Tris HCl pH 8.0, 200 mM NaCl; size estimated against standard proteins
[2] = biological target: PhoExo I (native, untagged) (Pyrococcus horikoshii OT3); experiment: crystal structure; substrate-free native PhoExo I, three crystal forms (crystals 1-3); sitting-drop vapour diffusion at 20°C; trimer in the asymmetric unit (crystals 1, 2) or by the crystallographic 3-fold axis (crystal 3)
[3] = biological target: PhoExo I-CHis D80N mutant (Pyrococcus horikoshii OT3); experiment: crystal structure; PhoExo I-CHis D80N cocrystallised with 7-nt ssDNAs (poly-dA, poly-dC, poly-dT; poly-dT crystal also soaked with 0.1 M MgCl2); 0.1 M MES pH 5.6-5.7, 12-14% PEG6000, 1 M LiCl
[4] = biological target: T1, PhoExo I-CHis (wild type) (Pyrococcus horikoshii OT3, UniProt A0A060P168 1-229); experiment: EMSA; 0.1 mM EDTA, no Mg2+; affinity lower than for RNA; EMSA: 25 mM Hepes-NaOH pH 7.5, 50 mM NaCl, 0.1 mM EDTA, 0.1 mg/ml BSA, 5 nM probe, 0-1600 nM trimer, 5 min 55 C, then 0.05% glutaraldehyde 10 min at room temperature; 7.5% native PAGE in TBE; settings: protein: recombinant; tags: C-terminal 4xHis; chain copies: 3; label: 5'-32P; single strand
[5] = biological target: T1, PhoExo I-CHis (wild type); experiment: EMSA; 0.1 mM EDTA, no Mg2+; stronger than for the DNA of same sequence; EMSA: 25 mM Hepes-NaOH pH 7.5, 50 mM NaCl, 0.1 mM EDTA, 0.1 mg/ml BSA, 5 nM probe, 0-1600 nM trimer, 5 min 55 C, then 0.05% glutaraldehyde 10 min at room temperature; 7.5% native PAGE in TBE; settings: protein: recombinant; tags: C-terminal 4xHis; chain copies: 3; label: 5'-32P; single strand

T1 sequence (A0A060P168 entry or part of it): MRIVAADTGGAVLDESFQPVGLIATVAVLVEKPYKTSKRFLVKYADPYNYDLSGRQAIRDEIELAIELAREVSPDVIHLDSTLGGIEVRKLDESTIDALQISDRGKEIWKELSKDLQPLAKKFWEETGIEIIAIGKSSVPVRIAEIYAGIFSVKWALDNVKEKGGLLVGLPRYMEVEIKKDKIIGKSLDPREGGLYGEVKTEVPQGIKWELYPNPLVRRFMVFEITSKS

- stoichiometry N [1]: 3
Molecule: C-terminal 4×His-tagged PhoExo I (PhoExo I-CHis) (enzyme)

- stoichiometry N [2]: 3
Molecule: PhoExo I (native, untagged) (enzyme)

- stoichiometry N [3]: 3
Molecule: PhoExo I-CHis D80N mutant (enzyme)

B1: 27-nt DNA (ssDNA)
DNA: AGCTATGACCATGATTACGAATTGCTT
- binding result [4]: binds

B2: 27-nt RNA (ssRNA)
RNA: AGCUAUGACCAUGAUUACGAAUUGCUU
- binding result [5]: binds
